Data: IntAct's records for PubMed 17909014

Target: ajuba_mouse Ajuba (UniProt Q91XC0)

Row | Substance | effect of a mutation on the interaction
1 | Zinc finger protein Gfi-1 (Homo sapiens), Q99684 K10A;K11A | disrupting interaction
2 | Zinc finger protein Gfi-1 (Homo sapiens), Q99684 F5A;L6A;V7A | disrupting interaction
3 | Zinc finger protein Gfi-1 (Homo sapiens), Q99684 F5A | disrupting interaction

Target: limd1_mouse Limd1 (UniProt Q9QXD8)
Sequence (Q9QXD8 whole entry): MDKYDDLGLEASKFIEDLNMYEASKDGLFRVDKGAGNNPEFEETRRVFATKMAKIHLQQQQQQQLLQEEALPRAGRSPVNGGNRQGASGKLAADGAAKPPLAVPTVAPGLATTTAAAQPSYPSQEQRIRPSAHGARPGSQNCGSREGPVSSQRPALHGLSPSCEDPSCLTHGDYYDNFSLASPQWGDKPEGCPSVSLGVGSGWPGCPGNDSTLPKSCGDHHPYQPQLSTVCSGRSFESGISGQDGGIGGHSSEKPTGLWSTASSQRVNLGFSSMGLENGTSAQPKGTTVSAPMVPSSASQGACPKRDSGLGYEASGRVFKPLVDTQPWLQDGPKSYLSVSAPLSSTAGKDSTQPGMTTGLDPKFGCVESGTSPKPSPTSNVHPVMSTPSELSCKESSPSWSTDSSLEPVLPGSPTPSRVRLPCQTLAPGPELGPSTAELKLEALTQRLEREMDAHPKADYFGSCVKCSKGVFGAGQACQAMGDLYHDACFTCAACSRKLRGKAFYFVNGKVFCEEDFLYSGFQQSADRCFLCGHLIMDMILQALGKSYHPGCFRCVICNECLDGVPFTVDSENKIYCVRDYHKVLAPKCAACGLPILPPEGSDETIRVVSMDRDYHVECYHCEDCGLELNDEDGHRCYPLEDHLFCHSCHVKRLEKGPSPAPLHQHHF

Row | Substance | effect of a mutation on the interaction
4 | Zinc finger protein Gfi-1 (Homo sapiens), Q99684 K10A;K11A | disrupting interaction
5 | Zinc finger protein Gfi-1 (Homo sapiens), Q99684 F5A;L6A;V7A | disrupting interaction
6 | Zinc finger protein Gfi-1 (Homo sapiens), Q99684 F5A | disrupting interaction
